Reference: patent publication US20110311550A1 (Scripps Research, published 2011)

What was measured:
Test in all cases: ELISA, lectin-captured E1E2 lysate, Ab 1 ug/ml;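 further: E1E2 captured on Galanthus nivalis lectin-coated plates, bound antibody read out via HRP-linked secondary antibody with TMB colorimetric substrate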
[1] = target: E1E2 complex (H77) with E2 mutation T621A (HCV genotype 1a, isolate H77, UniProt P27958 192-383; P27958 384-746)
[2] = target: E1E2 complex (H77) with E2 mutation N623A (HCV genotype 1a, isolate H77, UniProt P27958 192-383; P27958 384-746)
[3] = target: E1E2 complex (H77) with E2 mutation Y624A (HCV genotype 1a, isolate H77, UniProt P27958 192-383; P27958 384-746)
[4] = target: E1E2 complex (H77) with E2 mutation R630A (HCV genotype 1a, isolate H77, UniProt P27958 192-383; P27958 384-746)
[5] = target: E1E2 complex (H77) with E2 mutation G634A (HCV genotype 1a, isolate H77, UniProt P27958 192-383; P27958 384-746)
[6] = target: E1E2 complex (H77) with E2 mutation G635A (HCV genotype 1a, isolate H77, UniProt P27958 192-383; P27958 384-746)
[7] = target: E1E2 complex (H77) with E2 mutation H638A (HCV genotype 1a, isolate H77, UniProt P27958 192-383; P27958 384-746)
[8] = target: E1E2 complex (H77) with E2 mutation R639A (HCV genotype 1a, isolate H77, UniProt P27958 192-383; P27958 384-746)
[9] = target: E1E2 complex (H77) with E2 mutation A643G (HCV genotype 1a, isolate H77, UniProt P27958 192-383; P27958 384-746)
[10] = target: E1E2 complex (H77) with E2 mutation L427A (HCV genotype 1a, isolate H77, UniProt P27958 192-383; P27958 384-746)
[11] = target: E1E2 complex (H77) with E2 mutation N428A (HCV genotype 1a, isolate H77, UniProt P27958 192-383; P27958 384-746)
[12] = target: E1E2 complex (H77) with E2 mutation T435A (HCV genotype 1a, isolate H77, UniProt P27958 192-383; P27958 384-746)
[13] = target: E1E2 complex (H77) with E2 mutation G436A (HCV genotype 1a, isolate H77, UniProt P27958 192-383; P27958 384-746)
[14] = target: E1E2 complex (H77) with E2 mutation A439G (HCV genotype 1a, isolate H77, UniProt P27958 192-383; P27958 384-746)
[15] = target: E1E2 complex (H77) with E2 mutation L441A (HCV genotype 1a, isolate H77, UniProt P27958 192-383; P27958 384-746)
[16] = target: E1E2 complex (H77) with E2 mutation F442A (HCV genotype 1a, isolate H77, UniProt P27958 192-383; P27958 384-746)
[17] = target: E1E2 complex (H77) with E2 mutation Y443A (HCV genotype 1a, isolate H77, UniProt P27958 192-383; P27958 384-746)
[18] = target: E1E2 complex (H77) with E2 mutation F447A (HCV genotype 1a, isolate H77, UniProt P27958 192-383; P27958 384-746)
[19] = target: E1E2 complex (H77) with E2 mutation N448A (HCV genotype 1a, isolate H77, UniProt P27958 192-383; P27958 384-746)
[20] = target: E1E2 complex (H77) with E2 mutation H617A (HCV genotype 1a, isolate H77, UniProt P27958 192-383; P27958 384-746)
[21] = target: E1E2 complex (H77) with E2 mutation Y618A (HCV genotype 1a, isolate H77, UniProt P27958 192-383; P27958 384-746)
[22] = target: E1E2 complex (H77) with E2 mutation P619A (HCV genotype 1a, isolate H77, UniProt P27958 192-383; P27958 384-746)

B1: N4 IgG (antibody, V domains shown)
VH: VQLLEQSGPEVKKPGDSLRISCKMSGDSLVTTWIGWVRQKPGQGLEWMGIINPGDSSTNIYPGDSATRYGPSFQGQVTISIDKSTSTAYLQWNNVKASDTGIYYCARHVPVPISGTFLWREREMHDFGYFDDWGQGTLVIVSS
VL: ELTLTQSPGTLSLSPGERATLSCRASQSVSNNYLAWYQQKPGQAPRLLIYGASSRATGIPDRFSGSGSGTGFTLIISRLEPEDFAVYYCQQYGSSSITFGQGTRLEIKR
notes: also called IgG N4
[1]
  Binding relative to wt (%): 34%
[2]
  Binding relative to wt (%): 54%
[3]
  Binding relative to wt (%): 59%
[4]
  Binding relative to wt (%): 115%
[5]
  Binding relative to wt (%): 117%
[6]
  Binding relative to wt (%): 80%
[7]
  Binding relative to wt (%): 12%
[8]
  Binding relative to wt (%): 114%
[9]
  Binding relative to wt (%): 34%
[10]
  Binding relative to wt (%): 125%
[11]
  Binding relative to wt (%): 98%
[12]
  Binding relative to wt (%): 122%
[13]
  Binding relative to wt (%): 107%
[14]
  Binding relative to wt (%): 12%
[15]
  Binding relative to wt (%): 18%
[16]
  Binding relative to wt (%): 22%
[17]
  Binding relative to wt (%): 5%
[18]
  Binding relative to wt (%): 28%
[19]
  Binding relative to wt (%): 48%
[20]
  Binding relative to wt (%): 21%
[21]
  Binding relative to wt (%): 33%
[22]
  Binding relative to wt (%): 41%
